These results are taken from doi:10.1101/2022.08.08.503141 (bioRxiv, 2022).

The experiment addresses winged-helix domain 32C of human RPA (residues 172-270 of RPA2) (human, UniProt P15927 172-270). As to the kind of experiment: NMR titration.

winged-helix domain 32C of human RPA (residues 172-270 of RPA2), sequence (P15927 172-270): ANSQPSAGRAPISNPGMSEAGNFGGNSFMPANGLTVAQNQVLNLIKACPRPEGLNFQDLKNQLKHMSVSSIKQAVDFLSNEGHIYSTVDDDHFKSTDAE

B1: harmonin homology domain 2 (HHD2) of human RTEL1, residues 1056-1140 (domain or fragment)
chain: GQHAVSAYLADARRALGSAGCSQLLAALTAYKQDDDLDKVLAVLAALTTAKPEDFPLLHRFSMFVRPHHKQRFSQTCTDLTGRPY
Turning to B1, the binding result is “binds”.
